Measured values from the supplement of paper PMC10724198.
± gives the standard deviation of the averaged measurements.
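Further: PSI is a weighted mean of sequencing reads over stability bins, variants kept only with over 10 reads, mCherry proximal and sfGFP distal, peptide attached via GGGS linker.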

What follows are sequences tested on Saccharomyces cerevisiae (assay: protein stability index of tFT-peptide fusion (C-terminal peptide) (PSI (0-1 scale)); higher = more stable (slower turnover)). Details: genetic background: wild type; temperature: 30 C.
Procedure: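 Multiplexed protein stability (MPS) profiling in S. cerevisiae. Random 12-aa peptides (tFT-X12 library) are fused to the C-terminus of a sfGFP-mCherry tandem fluorescent timer, after mCherry and a GGGS linker. Cells are FACS-sorted into 8 mCherry/sfGFP bins and deep-sequenced. The protein stability index (PSI) is the read-weighted bin average, scaled from 0 (unstable) to 1 (stable). Only peptides with >10 reads are reported; cells were grown at 30 °C in SC-His with glucose.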
AAEKSPQQADAD gave a protein stability index of 0.709 ± 0.013.
AAGDLGNKCGWG gave a protein stability index of 0.68 ± 0.025.
Sequence AAGRSNTEPGDH has a protein stability index of 0.69 ± 0.057.
For AAHLLPSIHGYL, the protein stability index was 0.669 ± 0.076.
In the case of AAKGSVRLFHVF, the protein stability index is reported as 0.561 ± 0.017.
In the case of AAMQCSRASTSS, the protein stability index is reported as 0.634 ± 0.077.
With AAPDLARPPLLR the protein stability index was 0.685 ± 0.018.
With AAPEGLRRDRGA the protein stability index was 0.571.
AAPGWDGTIGCG gave a protein stability index of 0.753 ± 0.043.
AAPHDVARPTTR showed a protein stability index of 0.689 ± 0.015.
Work on AAPSPRPTPLPS yielded a protein stability index of 0.698 ± 0.025.
AAPSTSPGPRPA gave a protein stability index of 0.652 ± 0.01.
AARRRLFSPCSP showed a protein stability index of 0.626 ± 0.1.
For ACGTFSDSMSQL, the protein stability index was 0.691 ± 0.11.
With ACIWRCFDAAMG the protein stability index was 0.632 ± 0.019.
ACKVIMSVGRRL gave a protein stability index of 0.644 ± 0.064.
ACSPPPPPTLLF gave a protein stability index of 0.686 ± 0.012.
For ADDDTGYPPTRT, the protein stability index was 0.669 ± 0.061.
Sequence ADPWSFKIVKEL has a protein stability index of 0.542 ± 0.028.
In the case of ADSWACSWLLFR, the protein stability index is reported as 0.613 ± 0.065.
With ADVVVGWWVSGW the protein stability index was 0.791 ± 0.1.
AEERTSETRYKN was tested, and the protein stability index was 0.656 ± 0.0079.
In the case of AEIINRVKSRSK, the protein stability index is reported as 0.731 ± 0.074.
Sequence AEKTKAEKNITK has a protein stability index of 0.752 ± 0.022.
For AELAMGVSDMYS, the protein stability index was 0.6782 ± 0.0013.
AEQLALSQLSYV gave a protein stability index of 0.687 ± 0.0099.
For AERKDKNRKKKR, the protein stability index was 0.705 ± 0.023.
Sequence AESSLSLFPPPP has a protein stability index of 0.756 ± 0.059.
AETALGVCGVLC gave a protein stability index of 0.785 ± 0.11.
AETYASFHLTDP showed a protein stability index of 0.712 ± 0.042.
For AFALFVGKVLRC, the protein stability index was 0.566 ± 0.021.
AFFRLSLPGARA showed a protein stability index of 0.654 ± 0.011.
With AFPSCCFFLSLS the protein stability index was 0.662 ± 0.073.
In the case of AFPSSLVFFFYT, the protein stability index is reported as 0.651 ± 0.033.
AFRGGGVPGDFA was tested, and the protein stability index was 0.624 ± 0.024.
For AFSRCITVRVVH, the protein stability index was 0.498 ± 0.032.
Work on AFYVLPPSPLTR yielded a protein stability index of 0.665 ± 0.013.
For AGADCSHCVVDV, the protein stability index was 0.696 ± 0.0096.
AGAEHRERVGQS gave a protein stability index of 0.896 ± 0.056.
AGAGRLRGGGVN showed a protein stability index of 0.6767 ± 0.0017.
AGAICWFRHILI showed a protein stability index of 0.67 ± 0.14.
In the case of AGCGGGVTASGA, the protein stability index is reported as 0.688 ± 0.055.
AGCRCHSKKAAT showed a protein stability index of 0.624 ± 0.027.
Sequence AGCSVVGRWCLW has a protein stability index of 0.742 ± 0.1.
AGDGCGDWGRLS showed a protein stability index of 0.761 ± 0.11.
AGEGRLGDNIKG showed a protein stability index of 0.6794 ± 0.004.
Sequence AGFCFVALSLPL has a protein stability index of 0.629 ± 0.048.
With AGGGAAGPAGWV the protein stability index was 0.6728 ± 0.0036.
Sequence AGGGAVWQGQQD has a protein stability index of 0.725 ± 0.024.
Work on AGGGLGVVLGWW yielded a protein stability index of 0.7054 ± 0.0038.
With AGHACGSLRGHP the protein stability index was 0.682 ± 0.034.
In the case of AGHLLDVRLLVL, the protein stability index is reported as 0.487 ± 0.057.
In the case of AGIFGGGRGGSV, the protein stability index is reported as 0.697 ± 0.0048.
With AGMIRKGQYRGG the protein stability index was 0.68 ± 0.054.
In the case of AGPDGDWREPRP, the protein stability index is reported as 0.57 ± 0.069.
With AGQTLARLYTRS the protein stability index was 0.614 ± 0.12.
AGRFSPLPPHFI gave a protein stability index of 0.707 ± 0.035.
For AGSCVRLGGPEW, the protein stability index was 0.745 ± 0.052.
In the case of AHDRLPSTRLVC, the protein stability index is reported as 0.581 ± 0.086.
AHLGRDVGRGTW gave a protein stability index of 0.729 ± 0.062.
AHNRQRPEPDAR gave a protein stability index of 0.636 ± 0.031.
Sequence AHRLTKVIILFG has a protein stability index of 0.67 ± 0.1.
With AHRSIFSASSLL the protein stability index was 0.668 ± 0.084.
AISPAPRVSPTP was tested, and the protein stability index was 0.786 ± 0.052.
Sequence AISPHPPPALTP has a protein stability index of 0.6872 ± 0.0027.
AISPLLPSFSPP showed a protein stability index of 0.665 ± 0.037.
With AKGVYFPIKGIY the protein stability index was 0.6436 ± 0.004.
AKREGGGYSEDN gave a protein stability index of 0.664 ± 0.086.
With AKWGGDGCGARM the protein stability index was 0.764 ± 0.082.
ALAPCLPESIGN gave a protein stability index of 0.676 ± 0.057.
ALAPLISLSFLS showed a protein stability index of 0.68919 ± 0.00059.
Sequence ALAQQSPLPTRP has a protein stability index of 0.703 ± 0.011.
Work on ALDACLYLSSGL yielded a protein stability index of 0.637 ± 0.0097.
In the case of ALFCLLLPPPSP, the protein stability index is reported as 0.724 ± 0.008.
For ALFFCLFGRVMW, the protein stability index was 0.488 ± 0.023.
ALFLDFCFPCLP gave a protein stability index of 0.619 ± 0.011.
ALGQWGCAELHG was tested, and the protein stability index was 0.709 ± 0.0075.
ALGRRGPEDWSG showed a protein stability index of 0.707 ± 0.031.
In the case of ALPARFSSFRLP, the protein stability index is reported as 0.678 ± 0.019.
Work on ALPFPASTSPLS yielded a protein stability index of 0.701 ± 0.048.
ALPPSFPRPFSF gave a protein stability index of 0.703 ± 0.036.
In the case of ALPTLALPPCRS, the protein stability index is reported as 0.73 ± 0.1.
In the case of ALRLLLFISKSP, the protein stability index is reported as 0.6119 ± 0.0013.
In the case of ALRRKPRPRYPP, the protein stability index is reported as 0.621 ± 0.051.
Sequence ALRSGHALPFGF has a protein stability index of 0.667 ± 0.021.
With ALSFISYPFPLL the protein stability index was 0.642 ± 0.1.
With AMGSDRPPQSGY the protein stability index was 0.695 ± 0.012.
Work on ANRTIFWGRVRN yielded a protein stability index of 0.721 ± 0.05.
In the case of ANYGSCSLGYVL, the protein stability index is reported as 0.74 ± 0.062.
Work on APAAPLPVVSPD yielded a protein stability index of 0.752 ± 0.073.
For APAPHSPNFPFS, the protein stability index was 0.699 ± 0.008.
APAPPPVSSASL gave a protein stability index of 0.665 ± 0.013.
For APARASPPPPPP, the protein stability index was 0.633 ± 0.012.
For APHLPGHLTRPP, the protein stability index was 0.686 ± 0.086.
For APLFPLTPLAPP, the protein stability index was 0.733 ± 0.017.
APLPASPPIPSS gave a protein stability index of 0.662 ± 0.12.
APLPRRQFPLSP showed a protein stability index of 0.687 ± 0.011.
APLSPSAPPPPP showed a protein stability index of 0.709 ± 0.031.
Sequence APPLPHSSSGSL has a protein stability index of 0.698 ± 0.028.
Work on APPPLCCPPLAP yielded a protein stability index of 0.735 ± 0.1.
APPPPLPPPPSP showed a protein stability index of 0.689 ± 0.092.
Work on APPPPPPPPPPP yielded a protein stability index of 0.63 ± 0.056.
With APPPPPPPRLTF the protein stability index was 0.695 ± 0.076.
Work on APPPPVAEAARG yielded a protein stability index of 0.667 ± 0.032.
APPPREAATSIA showed a protein stability index of 0.699 ± 0.036.
For APPRPCFSALTL, the protein stability index was 0.726 ± 0.076.
Work on APPRPTRSHSAL yielded a protein stability index of 0.657 ± 0.043.
Work on APRFDLVLPHVF yielded a protein stability index of 0.721 ± 0.07.
APRRPPQHPTLL showed a protein stability index of 0.626 ± 0.038.
For APRSPSLRSRHP, the protein stability index was 0.743 ± 0.018.
APRTRLCVHEIP showed a protein stability index of 0.686 ± 0.01.
In the case of APSPPRAPLPPA, the protein stability index is reported as 0.689 ± 0.047.
For AQELPGGAGGDG, the protein stability index was 0.659 ± 0.031.
AQSFRGVLLDVT was tested, and the protein stability index was 0.706 ± 0.05.
Work on AQTTRGGRRGDE yielded a protein stability index of 0.657 ± 0.034.
Sequence AQYSTPSPMGQT has a protein stability index of 0.671 ± 0.044.
ARCLETKPVMNA gave a protein stability index of 0.666 ± 0.03.
In the case of ARFVAGLTKVDV, the protein stability index is reported as 0.65 ± 0.029.
Work on ARGGTAVYKAAG yielded a protein stability index of 0.668 ± 0.02.
Work on ARGRSACGKLIY yielded a protein stability index of 0.654 ± 0.017.
For ARKGVDFSRVIG, the protein stability index was 0.6472 ± 0.0059.
ARLAVTLLISPS showed a protein stability index of 0.604 ± 0.016.
With ARLGSVFLDPSG the protein stability index was 0.64833 ± 0.0003.
Work on ARLPPPRPLPPP yielded a protein stability index of 0.748 ± 0.13.
With ARLPVPPLLCPF the protein stability index was 0.71 ± 0.061.
ARPFPPLSPPPP showed a protein stability index of 0.655 ± 0.078.
For ARPPLARITRPS, the protein stability index was 0.686 ± 0.015.
For ARPPLSHPRPPL, the protein stability index was 0.788 ± 0.057.
ARPPSLLLLASF gave a protein stability index of 0.6475 ± 0.0058.
ARPSPPAILVPS gave a protein stability index of 0.586 ± 0.017.
With ARRAWPPPTPLF the protein stability index was 0.719 ± 0.058.
ARRCRPVFRHAI was tested, and the protein stability index was 0.639 ± 0.007.
ARRGLVWTEGGG gave a protein stability index of 0.718 ± 0.011.
In the case of ARSRLAPLSVLA, the protein stability index is reported as 0.548 ± 0.029.
With ARSTGATSEHKQ the protein stability index was 0.667 ± 0.062.
ARTSPRSPTFPP was tested, and the protein stability index was 0.69 ± 0.066.
ASARLRPDCPYL showed a protein stability index of 0.645 ± 0.074.
With ASAWLGLCGWVL the protein stability index was 0.674 ± 0.018.
ASENESDDEKLF was tested, and the protein stability index was 0.7 ± 0.071.
ASLAPTLPPPPQ was tested, and the protein stability index was 0.677 ± 0.021.
ASLEASFYVVPC gave a protein stability index of 0.641 ± 0.014.
Work on ASNSSGHTTRAS yielded a protein stability index of 0.6727 ± 0.003.
ASPFTYPDFFFP showed a protein stability index of 0.661 ± 0.046.
ASPLPPPSHLSL gave a protein stability index of 0.741 ± 0.021.
In the case of ASRISTAFPVPP, the protein stability index is reported as 0.685 ± 0.057.
Work on ASSHSFPDAPSL yielded a protein stability index of 0.73 ± 0.046.
In the case of ASSLHFLYLPAL, the protein stability index is reported as 0.709 ± 0.062.
For ASTTSYNITLEC, the protein stability index was 0.679 ± 0.17.
For ASVLSTQDPGEY, the protein stability index was 0.676 ± 0.055.
For ASVWSLPSIVLT, the protein stability index was 0.519 ± 0.074.
Sequence ASWEARGWLGWA has a protein stability index of 0.794 ± 0.05.
With ATGGGSFKRRVS the protein stability index was 0.53 ± 0.014.
With ATGHQMTMYDNR the protein stability index was 0.708 ± 0.069.
ATHISCRRNRLY gave a protein stability index of 0.57 ± 0.039.
ATLVRTTWSCHG showed a protein stability index of 0.669 ± 0.014.
